koff data for 1 molecule are collected here from publication PMC9122904, “Insights into the client protein release mechanism of the ATP-independent chaperone Spy” (Nature Communications, 2022).

Assay in all cases: BLI; Octet RED96; client biotinylated and loaded on streptavidin sensors; Spy or Spy variant in solution at 0.25, 0.5, 1, 1.5 and 2 μM; 40 mM HEPES, 150 mM NaCl, pH 7.5; Kd calculated as koff/kon
Common to all, as to details: both partners purified

Experiment [1] deals with T1, Spy wild type (Spy_(1-138)) (UniProt P77754 24-161).
T1 construct: Spy, ATP-independent periplasmic chaperone; also called WT; wt; source: E. coli BL21 (DE3), purified (Ni-NTA, cation exchange, SEC); not shown: His6, N-terminal, cleaved; SUMO, N-terminal, cleaved
T1 sequence (looked up): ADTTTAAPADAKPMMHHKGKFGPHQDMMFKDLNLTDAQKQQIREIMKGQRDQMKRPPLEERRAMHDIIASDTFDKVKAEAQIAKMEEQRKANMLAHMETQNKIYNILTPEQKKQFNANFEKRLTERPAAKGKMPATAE
In short, it runs like this:
(§1)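 Biolayer interferometry used an Octet RED96: client proteins biotinylated with EZ-link NHS-biotin (1:1 molar ratio) were loaded on streptavidin sensors, dipped into 40 mM HEPES, 150 mM NaCl, pH 7.5 containing Spy protein at 0.25, 0.5, 1, 1.5 and 2 μM, then moved to Spy-free buffer. Wavelength-shift association and dissociation curves were fitted in SigmaPlot 12.0, giving observed association rate and koff. kon came from observed rate versus Spy concentration; Kd was koff/kon.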

The target of the next experiment is T2, Spy_(29-130) (UniProt P77754 52-153).
T2 construct: Spy chaperone, residues 29-130; source: E. coli BL21 (DE3), purified (Ni-NTA, cation exchange, SEC); not shown: His6, N-terminal, cleaved; SUMO, N-terminal, cleaved
T2 sequence (looked up): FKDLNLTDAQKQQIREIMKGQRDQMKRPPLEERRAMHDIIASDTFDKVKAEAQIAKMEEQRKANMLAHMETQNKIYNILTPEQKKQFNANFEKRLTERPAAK
The procedure, abridged:
as §1

For a further experiment, the target named is T3, Spy_(29-127) (UniProt P77754 52-150).
T3 construct: Spy chaperone, residues 29-127; source: E. coli BL21 (DE3), purified (Ni-NTA, cation exchange, SEC); not shown: His6, N-terminal, cleaved; SUMO, N-terminal, cleaved
T3 sequence (looked up): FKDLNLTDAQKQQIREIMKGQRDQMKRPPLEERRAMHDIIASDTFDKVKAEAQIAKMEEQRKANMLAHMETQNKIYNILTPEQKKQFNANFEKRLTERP
The procedure, abridged: as §1

The next experiment addresses T4, Spy_(29-124) (UniProt P77754 52-147).
T4 construct: also called termini-free Spy; source: E. coli BL21 (DE3), purified (Ni-NTA, cation exchange, SEC); not shown: His6, N-terminal, cleaved; SUMO, N-terminal, cleaved
T4 sequence (looked up): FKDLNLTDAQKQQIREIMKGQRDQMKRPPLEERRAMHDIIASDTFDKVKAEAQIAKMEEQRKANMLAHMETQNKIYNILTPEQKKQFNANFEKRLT
The procedure, abridged: as §1

Another experiment deals with T5, Spy_(1-124) (UniProt P77754 24-147).
T5 construct: source: E. coli BL21 (DE3), purified (Ni-NTA, cation exchange, SEC); not shown: His6, N-terminal, cleaved; SUMO, N-terminal, cleaved
T5 sequence (looked up): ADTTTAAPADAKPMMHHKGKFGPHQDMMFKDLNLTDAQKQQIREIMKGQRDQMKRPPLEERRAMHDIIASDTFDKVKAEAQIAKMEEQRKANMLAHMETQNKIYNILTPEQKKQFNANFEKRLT
In short, it runs like this:
as §1

The next experiment concerns the target T6, Spy_(21-124) (UniProt P77754 44-147).
T6 construct: source: E. coli BL21 (DE3), purified (Ni-NTA, cation exchange, SEC); not shown: His6, N-terminal, cleaved; SUMO, N-terminal, cleaved
T6 sequence (looked up): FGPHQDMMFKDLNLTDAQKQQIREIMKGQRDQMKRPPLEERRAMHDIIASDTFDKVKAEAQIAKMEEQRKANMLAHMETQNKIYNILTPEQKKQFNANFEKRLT
The procedure, abridged: as §1

The target of the next experiment is T7, Spy_(24-130) (UniProt P77754 47-153).
T7 construct: Spy chaperone, residues 24-130; source: E. coli BL21 (DE3), purified (Ni-NTA, cation exchange, SEC); not shown: His6, N-terminal, cleaved; SUMO, N-terminal, cleaved
T7 sequence (looked up): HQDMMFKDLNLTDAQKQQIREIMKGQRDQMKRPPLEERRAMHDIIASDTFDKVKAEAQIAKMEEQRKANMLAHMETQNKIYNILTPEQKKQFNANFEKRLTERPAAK
The procedure, abridged:
as §1

The next experiment has as its target T8, Spy_(27-130) (UniProt P77754 50-153).
T8 construct: Spy chaperone, residues 27-130; source: E. coli BL21 (DE3), purified (Ni-NTA, cation exchange, SEC); not shown: His6, N-terminal, cleaved; SUMO, N-terminal, cleaved
T8 sequence (looked up): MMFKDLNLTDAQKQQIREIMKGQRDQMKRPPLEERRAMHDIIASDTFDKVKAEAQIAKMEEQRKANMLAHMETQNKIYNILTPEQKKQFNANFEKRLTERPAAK
In short, it runs like this: as §1

For orientation: koff means a measure of how fast the partners let go of each other.

B1: Im7 H40W L53A I54A (natural protein)
chain: MELKNSISDYTEAEFVQLLKEIEKENVAATDDVLDVLLEWFVKITEHPDGTDAAYYPSDNRDDSPEGIVKEIKEWRAANGKPGFKQG
modifications: biotin (EZ-link NHS-biotin, 1:1 molar ratio of biotin to protein)
notes: Im7 (colicin E7 immunity protein) with H40W L53A I54A; Spy was made with an N-terminal His6-SUMO tag that was cleaved; also called Im7AAW; partially folded client; source: purified by a similar procedure to Spy
For B1, the koff was 0.179 s⁻¹ in experiment [1]; 0.0937 s⁻¹ with Spy_(29-130); 0.095 s⁻¹ with Spy_(29-127); 0.089 s⁻¹ with Spy_(29-124); 0.188 s⁻¹ in the experiment with Spy_(1-124); 0.487 s⁻¹ with Spy_(21-124). For the same molecule, the koff was 0.3 s⁻¹ with Spy_(24-130) and 0.092 s⁻¹ with Spy_(27-130).
